Experimental data reported in patent publication US6277383A, “Ryegrass pollen allergen” (University of Melbourne, priority 1995, dated 2001).

Assays:
[1] = system: specific IgE from pooled human allergic sera; test: Immunological screening of clone 19R with sera; assay type: binding; conditions: plaque purified clone
Text: Duplicate filters of the cDNA expression library in Example 1 were screened with specific IgE from pooled human allergic sera. The bound IgE was detected using ^125 I-labelled anti-human IgE (Kallestad Laboratories,Chaska, Minn.). The plaques that were antibody-positive on both of the duplicate filters were picked off, purified, and then replated and tested for binding to MAbs.

[2] = system: IgE antibodies of individual serum from 30 grass allergic patients; test: Dot blot screening of recombinant allergens with 30 individual allergic sera; assay type: binding, human
Protocol: Two microliters of phage stocks of clones 12R, 13R and 19R and a non-recombinant lambda gt 11 were spotted onto a lawn of E. coli Y1090 induced with a nitrocellulose filter saturated with 10 mM IPTG. The protein blots were then probed with individual serum from 30 grass allergic patients. a=Lol p Ib.1, b=Lol p Ia, c=Lol p Ib.2 and d=non-recombinant lambda gt 11. [<]=individuals having higher level of IgE bound to Lol p Ib.2 than Lol p Ia and Lol p Ib.1. [1]=individuals having IgE specific to Lol p Ia. [2]=individuals having IgE specific to Lol p Ib.1 and Lol p Ib.2.
The relative allergenicity of Lol p Ia, Lol p Ib.1 and Lol p Ib.2 were tested using 30 individual allergic sera.

MAb 12.3 = test: Antibody screening of lambda-gt 11 cDNA clones: binding of MAb 12.3
Protocol: Poly (A+) mRNA isolated from mature rye grass pollen by the phenol method ([…] and Michaels, (1984) Plant Mol. Biol. Rep., 2:24-28) was used to construct a cDNA library in the vector lambda-gt 11. The library was then screened with antibody probes to detect sequences expressing Group I proteins. E. coli […] transfected with 3×10^4 recombinant phages were plated and incubated at 42° C. for 3 h. The plates were overlaid with a dry 132 mm nitrocellulose (NC) filter previously soaked in 10 mm IPTG and transferred to 37° C. After incubation for 3 h the filters were carefully peeled off and incubated in 20 ml per filter of MTBS (10% w/v non-fat milk powder, 50 mm Tris-HCI, pH 7.6, 150 mM Nacl) for 30 min. at room temperature. A second set of NC filters was placed on phage plates and after incubating for 3 h were treated as above. Both sets of NC filters were tested for binding of MAb 40.1 to plaques by the method described in Huynh et al. (1985) In: DNA Cloning, a practical approach, Glover, D. M. (ed.) Vol. 1, pp. 49-78, IRL Press, Oxford, England. The antibody positive plaques were picked, purified, then replated and tested for binding to probes. The positive clones were plaque-purified and tested for IgE binding using sera from grass pollen-allergic subjects. Eighteen clones were selected as encoding proteins recognized by both Lol p I-specific MAbs and IgE antibodies (Table 1). The largest of the cDNA clones, 1.2kb in size, that expressed rye-grass allergenic protein was initially selected for further characterization and sequencing, and designated clone lambda-12R (FIG. 1a).

[3] = system: MAbs 3.2, 12.3, 21.3 and 40.1; test: Recognition of cloned allergen 12R by MAbs (FIG. 1a); assay type: binding; conditions: MAbs 3.2, 12.3, 21.3, 40.1
Protocol: Poly (A+) mRNA isolated from mature rye grass pollen by the phenol method (Herrin and Michaels, (1984) Plant Mol. Biol. Rep., 2:24-28) was used to construct a cDNA library in the vector lambda-gt 11. The library was then screened with antibody probes to detect sequences expressing Group I proteins. E. coli Y1090 transfected with 3×10^4 recombinant phages were plated and incubated at 42° C. for 3 h. The plates were overlaid with a dry 132 mm nitrocellulose (NC) filter previously soaked in 10 mm IPTG and transferred to 37° C. After incubation for 3 h the filters were carefully peeled off and incubated in 20 ml per filter of MTBS (10% w/v non-fat milk powder, 50 mm Tris-HCI, pH 7.6, 150 mM Nacl) for 30 min. at room temperature. A second set of NC filters was placed on phage plates and after incubating for 3 h were treated as above. Both sets of NC filters were tested for binding of MAb 40.1 to plaques by the method described in Huynh et al. (1985) In: DNA Cloning, a practical approach, Glover, D. M. (ed.) Vol. 1, pp. 49-78, IRL Press, Oxford, England. The antibody positive plaques were picked, purified, then replated and tested for binding to probes. The positive clones were plaque-purified and tested for IgE binding using sera from grass pollen-allergic subjects. Eighteen clones were selected as encoding proteins recognized by both Lol p I-specific MAbs and IgE antibodies (Table 1). […]

B1: clone 19R: lambda gt 11 cDNA clone encoding Lol p Ib.2 (protein)
chain: MAVQKHTVALFLAVALVAGPAASYAADAGYAPATPATPAAPATAATPATPATPATPAAVPSGKATTEEQKLIEKINAGFKAAVAAAAVVPPADKYKTFVETFGTATNKAFVEGLASGYADQSKNQLTSKLDAALKLAYEAAQGATPEAKYDAYVATLTEALRVIAGTLEVHAVKPAAEEVKVGAIPAAEVQLIDKVDAAYRTAATAANAAPANDKFTVFENTFNNAIKVSLGAAYDSYKFIPTLVAAVKQAYAAKQATAPEVKYTVSETALKKAVTAMSEAEKEATPAAAATATPTPAAATATATPAAAYATATPAAATATATPAAATATPAAAGGYKV
Reaction with non-allergic sera [1]: not positive | Binding of specific IgE in sera of ryegrass sensitive patients ([1]; pooled allergic sera): bind specific IgE

B2: Lol p Ib.2: protein encoded by clone 19R (SEQ ID NO.: 4) (protein)
chain: B1 chain
Patients with IgE antibodies reactive to the recombinant allergen [2]: 80%

B3: Lol p Ib.1: protein encoded by the 12R clone (SEQ ID NO.: 2) (protein)
chain: MAVQKYTVALFLAVALVAGPAASYAADAGYTPAAAATPATPAATPAAAGGKATTDEQKLLEDVNAGFKAAVAAAANAPPADKFKIFEAAFSESSKGLLATSAAKAPGLIPKLDTAYDVAYKAAEGATPEAKYDAFVTALTEALRVIAGALEVHAVKPATEEVPAAKIPTGELQIVDKIDAAFKIAATAANAAPTNDKFTVFESAFNKALNECTGGAYETYKFIPSLEAAVKQAYAATVAAAPEVKYAVFEAALTKAITAMTQAQKAGKPAAAAATGAATVATGAATAAAGAATAAAGGYKA
Affinity of MAb 12.3 (footnote of Table 1, in words) (MAb 12.3): high affinity | Patients with IgE antibodies reactive to the recombinant allergen [2]: 80%

B4: Clone 12: 1.2 kb cDNA clone lambda-12R; its expressed protein is designated Lol p Ib.1 (protein)
chain: B3 chain
Recognition by all four MAbs used in this study [3]: recognized
